Values of other authors in article PMC4615603.

Target: Nef (Human immunodeficiency virus 1) (UniProt P04324)

In the case of Hck SH3 (from UniProt P08631), the Kd is listed as 120 nM.
